The numbers were not newly measured in article PMC8781899, which cites them from elsewhere.

pKd: −log10 of the molar value. Where two headings read alike, the source gives them in different places.

Data set [1] has as its target DR4 (Homo sapiens) (UniProt O00220).
The target is the same in data set [2]. The source holds these as a separate data set.

UniProt O00220, sequence (O00220 24-468): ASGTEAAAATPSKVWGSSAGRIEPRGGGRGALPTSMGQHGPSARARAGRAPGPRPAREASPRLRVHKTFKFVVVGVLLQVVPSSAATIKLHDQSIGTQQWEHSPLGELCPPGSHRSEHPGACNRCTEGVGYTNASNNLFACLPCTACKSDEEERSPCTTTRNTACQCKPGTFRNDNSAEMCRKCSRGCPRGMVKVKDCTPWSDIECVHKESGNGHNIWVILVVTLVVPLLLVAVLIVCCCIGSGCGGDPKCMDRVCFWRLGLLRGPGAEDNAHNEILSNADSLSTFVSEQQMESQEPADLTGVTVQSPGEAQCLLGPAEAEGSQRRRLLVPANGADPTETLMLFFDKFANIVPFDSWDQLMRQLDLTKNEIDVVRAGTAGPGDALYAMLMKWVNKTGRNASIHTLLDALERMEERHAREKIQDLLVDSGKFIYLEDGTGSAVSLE
TRAIL, sequence (P50591 whole entry): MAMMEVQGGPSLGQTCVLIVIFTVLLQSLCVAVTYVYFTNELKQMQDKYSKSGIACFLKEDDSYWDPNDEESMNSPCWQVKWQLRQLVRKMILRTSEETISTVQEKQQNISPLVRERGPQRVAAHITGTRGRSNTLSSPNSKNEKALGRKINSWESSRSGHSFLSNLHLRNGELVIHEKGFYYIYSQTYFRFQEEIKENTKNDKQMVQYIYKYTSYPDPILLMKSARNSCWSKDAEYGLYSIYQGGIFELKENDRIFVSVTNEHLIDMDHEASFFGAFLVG

One may read the pKd as the Kd on a negative log10 scale, so that one unit is a factor of ten. On to TRAIL (from UniProt P50591), for which the pKd with DR4 (Homo sapiens) [1] is 9.77.

“TRAIL D269H/E195R (DHER) (from UniProt P50591)”: in the data set with DR4 (Homo sapiens) [2], the negative-log Kd (pKd) was 8.54.
